From IntAct's records for PubMed 25684205

B1: Kelch repeat and BTB domain-containing protein 7 (Homo sapiens), Q8WVZ9 (parent)
chain: MQSREDVPRSRRLASPRGGRRPKRISKPSVSAFFTGPEELKDTAHSAALLAQLKSFYDARLLCDVTIEVVTPGSGPGTGRLFSCNRNVLAAACPYFKSMFTGGMYESQQASVTMHDVDAESFEVLVDYCYTGRVSLSEANVQRLYAASDMLQLEYVREACASFLARRLDLTNCTAILKFADAFDHHKLRSQAQSYIAHNFKQLSRMGSIREETLADLTLAQLLAVLRLDSLDIESERTVCHVAVQWLEAAAKERGPSAAEVFKCVRWMHFTEEDQDYLEGLLTKPIVKKYCLDVIEGALQMRYGDLLYKSLVPVPNSSSSSSSSNSLVSAAENPPQRLGMCAKEMVIFFGHPRDPFLCYDPYSGDIYTMPSPLTSFAHTKTVTSSAVCVSPDHDIYLAAQPRKDLWVYKPAQNSWQQLADRLLCREGMDVAYLNGYIYILGGRDPITGVKLKEVECYSVQRNQWALVAPVPHSFYSFELIVVQNYLYAVNSKRMLCYDPSHNMWLNCASLKRSDFQEACVFNDEIYCICDIPVMKVYNPARGEWRRISNIPLDSETHNYQIVNHDQKLLLITSTTPQWKKNRVTVYEYDTREDQWINIGTMLGLLQFDSGFICLCARVYPSCLEPGQSFITEEDDARSESSTEWDLDGFSELDSESGSSSSFSDDEVWVQVAPQRNAQDQQGSL
B2: Kelch repeat and BTB domain-containing protein 6 (Homo sapiens), Q86V97 (parent)
chain: MQSREDAPRSRRLASPRGGKRPKKIHKPTVSAFFTGPEELKDTAHSAALLAQLKSFYDARLLCDVTIEVVTPGSGPGTGRLFPCNRNVLAAACPYFKSMFTGGMYESQQASVTMHDVDAESFEVLVDYCYTGRVSLSEANVERLYAASDMLQLEYVREACASFLARRLDLTNCTAILKFADAFGHRKLRSQAQSYIAQNFKQLSHMGSIREETLADLTLAQLLAVLRLDSLDVESEQTVCHVAVQWLEAAPKERGPSAAEVFKCVRWMHFTEEDQDYLEGLLTKPIVKKYCLDVIEGALQMRYGDLLYKSLVPVPNSSSSSSSSNSLVSAAENPPQRLGMCAKEMVIFFGHPRDPFLCCDPYSGDLYKVPSPLTCLAHTRTVTTLAVCISPDHDIYLAAQPRTDLWVYKPAQNSWQQLADRLLCREGMDVAYLNGYIYILGGRDPITGVKLKEVECYNVKRNQWALVAPLPHSFLSFDLMVIRDYLYALNSKRMFCYDPSHNMWLKCVSLKRNDFQEACVFNEEIYCICDIPVMKVYNPVRAEWRQMNNIPLVSETNNYRIIKHGQKLLLITSRTPQWKKNRVTVYEYDIRGDQWINIGTTLGLLQFDSNFFCLSARVYPSCLEPGQSFLTEEEEIPSESSTEWDLGGFSEPDSESGSSSSLSDDDFWVRVAPQ

Variants of: B1
Details: with gbrap_human GABARAP

effect of a mutation on the interaction | Variant
with no effect | Y559A
with no effect | F122A
decreasing interaction strength | W668A
with no effect | F649A

Variants of: B1
Details: with gbrl2_human GABARAPL2, P60520
gbrl2_human GABARAPL2, P60520, sequence (P60520 whole entry): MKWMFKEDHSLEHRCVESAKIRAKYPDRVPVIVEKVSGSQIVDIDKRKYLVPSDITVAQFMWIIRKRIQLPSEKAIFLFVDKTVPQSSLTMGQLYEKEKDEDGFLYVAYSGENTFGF

effect of a mutation on the interaction | Variant
with no effect | Y559A
with no effect | F122A
with no effect | W668A
with no effect | F649A

Variants of: B1
Details: with mlp3b_human MAP1LC3B

effect of a mutation on the interaction | Variant
with no effect | Y559A
with no effect | F122A
disrupting interaction strength | W668A
with no effect | F649A

Variants of: B1
Details: with tiam1_human TIAM1, Q13009
Target sequence in this assay (Q13009 whole entry): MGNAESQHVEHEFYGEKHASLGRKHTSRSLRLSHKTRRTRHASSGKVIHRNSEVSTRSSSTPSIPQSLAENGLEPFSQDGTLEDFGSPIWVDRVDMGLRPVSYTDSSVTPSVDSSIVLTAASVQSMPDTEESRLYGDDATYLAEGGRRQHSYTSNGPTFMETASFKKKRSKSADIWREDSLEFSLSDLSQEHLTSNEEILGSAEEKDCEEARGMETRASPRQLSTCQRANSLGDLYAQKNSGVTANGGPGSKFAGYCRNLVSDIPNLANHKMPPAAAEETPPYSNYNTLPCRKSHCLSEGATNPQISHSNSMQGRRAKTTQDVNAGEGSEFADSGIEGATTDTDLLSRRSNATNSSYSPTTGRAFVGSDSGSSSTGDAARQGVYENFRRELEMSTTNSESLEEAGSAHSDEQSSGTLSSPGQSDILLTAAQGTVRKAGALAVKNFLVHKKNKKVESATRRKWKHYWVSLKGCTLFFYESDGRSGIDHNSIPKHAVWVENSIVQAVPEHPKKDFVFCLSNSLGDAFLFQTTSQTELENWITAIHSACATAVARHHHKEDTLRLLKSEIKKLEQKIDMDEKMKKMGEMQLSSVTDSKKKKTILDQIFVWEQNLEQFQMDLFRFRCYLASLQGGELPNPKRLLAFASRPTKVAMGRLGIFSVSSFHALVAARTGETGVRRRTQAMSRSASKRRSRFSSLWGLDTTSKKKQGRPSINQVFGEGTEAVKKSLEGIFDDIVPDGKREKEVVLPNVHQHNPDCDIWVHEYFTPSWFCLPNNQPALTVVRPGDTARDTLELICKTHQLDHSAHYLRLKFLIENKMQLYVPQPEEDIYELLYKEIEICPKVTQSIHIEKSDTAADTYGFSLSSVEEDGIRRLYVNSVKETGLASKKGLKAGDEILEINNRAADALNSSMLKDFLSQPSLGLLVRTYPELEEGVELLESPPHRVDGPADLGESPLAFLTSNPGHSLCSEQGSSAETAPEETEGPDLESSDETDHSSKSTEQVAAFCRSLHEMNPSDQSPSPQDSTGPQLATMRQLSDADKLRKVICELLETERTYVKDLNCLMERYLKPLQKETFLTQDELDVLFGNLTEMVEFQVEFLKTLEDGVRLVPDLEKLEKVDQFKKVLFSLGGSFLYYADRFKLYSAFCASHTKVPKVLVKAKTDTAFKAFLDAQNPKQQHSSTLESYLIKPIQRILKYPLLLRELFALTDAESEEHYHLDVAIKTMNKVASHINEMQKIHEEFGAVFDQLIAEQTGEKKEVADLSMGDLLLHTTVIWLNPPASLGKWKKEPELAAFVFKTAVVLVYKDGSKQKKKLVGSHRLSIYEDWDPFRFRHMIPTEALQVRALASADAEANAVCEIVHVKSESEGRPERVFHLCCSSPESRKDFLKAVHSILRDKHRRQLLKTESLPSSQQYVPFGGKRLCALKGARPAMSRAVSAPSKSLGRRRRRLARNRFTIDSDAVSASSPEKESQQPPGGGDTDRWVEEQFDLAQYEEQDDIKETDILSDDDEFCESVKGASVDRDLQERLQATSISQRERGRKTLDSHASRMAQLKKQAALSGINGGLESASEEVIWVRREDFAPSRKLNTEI

effect of a mutation on the interaction | Variant
decreasing interaction strength | W668A
with no effect | M99A

Variants of: B1
Details: with cul3_human CUL3, Q13618

effect of a mutation on the interaction | Variant
disrupting interaction strength | M99A

Variants of: B2
Details: with cul3_human CUL3, Q13618

effect of a mutation on the interaction | Variant
disrupting interaction strength | M99A

Variants of: B2
Details: with tiam1_human TIAM1, Q13009
Target sequence in this assay (Q13009 whole entry): as above

effect of a mutation on the interaction | Variant
decreasing interaction strength | W668A
